Laboratory results taken from patent US20140212446A1.

Molecular target: CD64, high affinity human FcgammaRI receptor, expressed on K562 cells (K64 cells) (human)
Test: flow cytometry of K64 cells loaded with FITC-labelled IgG2a for 1 h at 4 C, quantified with Immuno-Brite beads

Question: “IgG2a-FITC-labeled antibodies (antibody)” was tested. Which antibodies bound to each cell (antibodies bound to each cell) did it give?
Answer: 2000 to 6000
